± gives the standard deviation of the averaged measurements.
System: ATP
Assay: switch fluorescence ratio, 500 uM ATP over buffer (Cy3 cluster intensity, sum of 5 cycles each) (fold (ratio)); higher = stronger signal-on switching upon ATP binding; sequences stand for … in TCGTCGGCAGCGTCAGATGTGTATAAGAGACAGTTTTTTTTTTTTTTTTTTTTTTTTT…TC
Conditions: aptamer strand: ATP DNA aptamer (quencher-CACCTGGGGGAGTATTGCGGAGGAAGG + anchor), 100 nM annealed; ATP concentration: 500 uM
Method in brief: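 The quencher-labelled ATP aptamer, at 100 nM, was annealed to Cy3-labelled switching-strand clusters on a modified Illumina MiSeq flow-cell. The clusters were imaged in selection buffer, then after 15 min with 500 uM ATP at 22 °C, and this buffer/ATP cycle ran five times with NaOH stripping and re-annealing between runs. Per-cluster fluorescence ratios, summed target-cycle over summed buffer-cycle Cy3 intensity, were averaged per switch-domain sequence. Clusters outside 100-1000 RFU were excluded.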
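Also: ATP exposure 15 min at 22 °C before imaging.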

TTTGGCCCCT
switch fluorescence ratio: 1 ± 0.03

GTTTTCCCTT
switch fluorescence ratio: 0.982 ± 0.016

CGTAGTAGGA
switch fluorescence ratio: 1.04 ± 0.084

CGTAATTGTA
switch fluorescence ratio: 1.01 ± 0.018

TAGCATTCAT
switch fluorescence ratio: 0.994 ± 0.0072

ATTTCAGATA
switch fluorescence ratio: 1.01 ± 0.02

TTAACGGTAA
switch fluorescence ratio: 1.09 ± 0.042

AATTTCTGTG
switch fluorescence ratio: 0.978 ± 0.035

AATGCCTGCG
switch fluorescence ratio: 1.02 ± 0.034

ATTGGGGCGG
switch fluorescence ratio: 0.9842 ± 0.0054

TTATGTAGTA
switch fluorescence ratio: 1 ± 0.019

CAGATATTAC
switch fluorescence ratio: 1.06 ± 0.035

AGTAAGGGGA
switch fluorescence ratio: 1.08 ± 0.045

GTGAGGGATT
switch fluorescence ratio: 1 ± 0.022

TTTTTAACAC
switch fluorescence ratio: 1.02 ± 0.021

TAGGGGCGCG
switch fluorescence ratio: 0.982 ± 0.078

GAATGGTTTT
switch fluorescence ratio: 0.971 ± 0.084

GGTGGCGGAT
switch fluorescence ratio: 1.07 ± 0.033

GCATAAGGGC
switch fluorescence ratio: 0.959 ± 0.033

ATTTAGGGCA
switch fluorescence ratio: 1.02 ± 0.051

GGCGGGGTAG
switch fluorescence ratio: 0.996 ± 0.032

CGTAGGGAAT
switch fluorescence ratio: 1.014 ± 0.0064

CTTTACTAGG
switch fluorescence ratio: 1.016 ± 0.0052

CGGTGGCCGT
switch fluorescence ratio: 1.02 ± 0.019

AAAGTTAGGG
switch fluorescence ratio: 1.01 ± 0.038

GGGGTGAAAT
switch fluorescence ratio: 1 ± 0.018

GGTATCTGAT
switch fluorescence ratio: 1.03 ± 0.02

AAATTAAGGA
switch fluorescence ratio: 1.01 ± 0.031

GTATACGCAG
switch fluorescence ratio: 1.02 ± 0.026

TGCCTATGGG
switch fluorescence ratio: 0.977 ± 0.029

ATGTGTGGCT
switch fluorescence ratio: 1.01 ± 0.022

AATCTTTGGA
switch fluorescence ratio: 1 ± 0.013

CGTTTACTCT
switch fluorescence ratio: 1.055 ± 0.0043

GGATTGGGCG
switch fluorescence ratio: 0.986 ± 0.026

TGGGATGAAG
switch fluorescence ratio: 0.982 ± 0.01

CATCTCTTGC
switch fluorescence ratio: 1.07 ± 0.036

GTTTAGAGGT
switch fluorescence ratio: 0.9925 ± 0.0082

CTGCTGAGGG
switch fluorescence ratio: 0.99 ± 0.013

GATGTAACTT
switch fluorescence ratio: 1.012 ± 0.0061

TTGTCACAGC
switch fluorescence ratio: 1.03 ± 0.022

TTTTTAGGGT
switch fluorescence ratio: 1 ± 0.073

AATTTGTAAG
switch fluorescence ratio: 1.01 ± 0.023

CTTAAATTCG
switch fluorescence ratio: 0.987 ± 0.018

GGGGCTATAA
switch fluorescence ratio: 1.11 ± 0.067

CGATACGTTG
switch fluorescence ratio: 0.99 ± 0.011

ACGGCTGTGC
switch fluorescence ratio: 1.02 ± 0.013

TCATATGTTG
switch fluorescence ratio: 1.018 ± 0.0036

GGATTAAAAG
switch fluorescence ratio: 1.01 ± 0.067

GGTGGAAAAG
switch fluorescence ratio: 1 ± 0.023

CATATAGGGT
switch fluorescence ratio: 0.976 ± 0.038

TTCTATGTTA
switch fluorescence ratio: 0.997 ± 0.014

ACGGGTGCGT
switch fluorescence ratio: 1.017 ± 0.0027

CGACATGAAT
switch fluorescence ratio: 1.037 ± 0.0082

AAATCGATGT
switch fluorescence ratio: 1 ± 0.02

ATCATGTGTA
switch fluorescence ratio: 1.01 ± 0.04

TATGAAGCCG
switch fluorescence ratio: 1.06 ± 0.044

ACATGAATTT
switch fluorescence ratio: 1 ± 0.029

TAGTGGGGAC
switch fluorescence ratio: 0.9677 ± 0.0027

CACCGGCTGG
switch fluorescence ratio: 0.986 ± 0.086

GGGGAAACGA
switch fluorescence ratio: 0.9987 ± 0.0015

TGTGGTCTGA
switch fluorescence ratio: 1.01 ± 0.09

GGTTTGACTA
switch fluorescence ratio: 0.9857 ± 0.0066

ATTCTGGGAT
switch fluorescence ratio: 1.013 ± 0.0027

AGGGTAGATC
switch fluorescence ratio: 1.03 ± 0.018

GGTCAAGGCC
switch fluorescence ratio: 0.999 ± 0.041

CGGAAAATTT
switch fluorescence ratio: 1.01 ± 0.075

GATAGTATGT
switch fluorescence ratio: 0.981 ± 0.023

TTCGGTAAAT
switch fluorescence ratio: 1.03 ± 0.033

TTTATGAGCT
switch fluorescence ratio: 1.03 ± 0.014

GGAAAATGTA
switch fluorescence ratio: 1.023 ± 0.0063

GGGGATTTGA
switch fluorescence ratio: 0.995 ± 0.029

TGGATTGACT
switch fluorescence ratio: 1.058 ± 0.0013

CTAGGAGGCG
switch fluorescence ratio: 1.03 ± 0.053

ACTGTTCAGC
switch fluorescence ratio: 0.9948 ± 0.0062

TTTCTACTCG
switch fluorescence ratio: 0.995 ± 0.017

CATTATCATT
switch fluorescence ratio: 0.97 ± 0.018

CCGATGATTG
switch fluorescence ratio: 1.08 ± 0.014

GCTGGGAGGC
switch fluorescence ratio: 0.947 ± 0.071

GTCTGTTATT
switch fluorescence ratio: 1.01 ± 0.035

CGGGTTTGTT
switch fluorescence ratio: 0.997 ± 0.02

GAGTGCTGTT
switch fluorescence ratio: 1.024 ± 0.01

CTGTAATTGG
switch fluorescence ratio: 1.006 ± 0.001

ATGGTGAGGC
switch fluorescence ratio: 0.95 ± 0.018

ATAATGACGT
switch fluorescence ratio: 1.01 ± 0.049

ACTGTTTTTT
switch fluorescence ratio: 1.02 ± 0.018

ACGTTGGTGG
switch fluorescence ratio: 1 ± 0.012

AGAGTAGTTA
switch fluorescence ratio: 0.9737 ± 0.0036

CTCTGGGTTG
switch fluorescence ratio: 1.07 ± 0.13

GTGTTTTACG
switch fluorescence ratio: 1.01 ± 0.021

TCGGGGCGCG
switch fluorescence ratio: 0.975 ± 0.061

ATGAGGGACT
switch fluorescence ratio: 0.9594 ± 0.0036

GCTGTGGCGT
switch fluorescence ratio: 1.02 ± 0.04

CAGCCCAGGT
switch fluorescence ratio: 4.12 ± 2.7

GACAATAGGC
switch fluorescence ratio: 1.1 ± 0.045

CCTTTCGGCT
switch fluorescence ratio: 1.068 ± 0.0038

GGGTCTGGTG
switch fluorescence ratio: 1.04 ± 0.057

GAGAAAAATG
switch fluorescence ratio: 0.9597 ± 0.0087

TCGGGGCGG
switch fluorescence ratio: 0.992 ± 0.011

GGTATATGTG
switch fluorescence ratio: 1 ± 0.025

ATTGGGCACC
switch fluorescence ratio: 0.998 ± 0.048

TACCTGGGGG
switch fluorescence ratio: 1.02 ± 0.03

GTGTTTGTTC
switch fluorescence ratio: 0.968 ± 0.013

TTTGGGGAAT
switch fluorescence ratio: 1.02 ± 0.033

TACCTTCGTT
switch fluorescence ratio: 1.04 ± 0.073

TTGCCGTGTT
switch fluorescence ratio: 1.02 ± 0.016

GAGGAAAGGC
switch fluorescence ratio: 0.999 ± 0.058

ATTTCAGTAA
switch fluorescence ratio: 1.05 ± 0.027

GGAGACTGGT
switch fluorescence ratio: 1.02 ± 0.063

AGGTTCAAAT
switch fluorescence ratio: 0.996 ± 0.044

GGTTTCGCGC
switch fluorescence ratio: 1.01 ± 0.013

AAAGTTAAGT
switch fluorescence ratio: 0.976 ± 0.0036

CAGGTGAGAA
switch fluorescence ratio: 1.16 ± 0.026

AAGTTAATTT
switch fluorescence ratio: 0.998 ± 0.021

ACTGCCGGTC
switch fluorescence ratio: 1.04 ± 0.041

TAAAGGCGAG
switch fluorescence ratio: 1.02 ± 0.027

TTTCTAACTC
switch fluorescence ratio: 1 ± 0.053

GGTATAGGGG
switch fluorescence ratio: 0.995 ± 0.054

GTTTTGCCTG
switch fluorescence ratio: 0.998 ± 0.0045

TGTTTTGTGT
switch fluorescence ratio: 1.035 ± 0.0073

AAAATTATC
switch fluorescence ratio: 0.997 ± 0.019

GGGGACGTTT
switch fluorescence ratio: 1.03 ± 0.043

TGTGGTGGGC
switch fluorescence ratio: 0.967 ± 0.0012

TATAAATTTG
switch fluorescence ratio: 1.01 ± 0.016

CGAGCATTGA
switch fluorescence ratio: 1.12 ± 0.012

CGCAGGGTGG
switch fluorescence ratio: 1.05 ± 0.022

CGGGTTTGGA
switch fluorescence ratio: 0.998 ± 0.035

TTTATGATGC
switch fluorescence ratio: 1.011 ± 0.0092

TCATGCGTAA
switch fluorescence ratio: 2.03 ± 0.069

TTGATGTAAA
switch fluorescence ratio: 0.997 ± 0.033

TGTACGTAG
switch fluorescence ratio: 1.01 ± 0.012

GGTGATAGTG
switch fluorescence ratio: 0.983 ± 0.024

TTTAATTGTG
switch fluorescence ratio: 0.9891 ± 0.0082

ACTTTGCGTT
switch fluorescence ratio: 0.992 ± 0.011

GTTATAGGTG
switch fluorescence ratio: 1.06 ± 0.065

ATCATGTGCA
switch fluorescence ratio: 0.9627 ± 0.0073

ACATGCCGGG
switch fluorescence ratio: 1.03 ± 0.085

TCGGTGTGCA
switch fluorescence ratio: 0.985 ± 0.024

GTATAAGAGG
switch fluorescence ratio: 0.991 ± 0.019

CTTACGGAGG
switch fluorescence ratio: 1.01 ± 0.015

GTTGGTTAGC
switch fluorescence ratio: 1.02 ± 0.035

TGGGAGGGTT
switch fluorescence ratio: 1.12 ± 0.25

TTATCAACAC
switch fluorescence ratio: 1.09 ± 0.13

AAAATCGGGA
switch fluorescence ratio: 1 ± 0.035

CTTCTGTCGT
switch fluorescence ratio: 1.034 ± 0.0018

CACGAGGTTG
switch fluorescence ratio: 0.992 ± 0.02

ATGGGGATCG
switch fluorescence ratio: 0.99341 ± 0.00035

AGGAATGACT
switch fluorescence ratio: 1 ± 0.023

CTAAGTAGAT
switch fluorescence ratio: 1.02 ± 0.028

CAGAATGTTA
switch fluorescence ratio: 1 ± 0.038

AATGTGCTGG
switch fluorescence ratio: 0.993 ± 0.018

CTGAGATCAG
switch fluorescence ratio: 1.01 ± 0.026

TGGTGTGGAG
switch fluorescence ratio: 1.062 ± 0.006

AGAACGGCGG
switch fluorescence ratio: 0.972 ± 0.085

AGGCAAATGC
switch fluorescence ratio: 1.25 ± 0.1

AATTGCAGAG
switch fluorescence ratio: 1.014 ± 0.0032

TAGAAAATTT
switch fluorescence ratio: 1 ± 0.022

CTCAACGTTC
switch fluorescence ratio: 1.088 ± 0.006
